Assay results reported in patent publication US20220251233A1 (VERSEAU THERAPEUTICS, published 2022).
Positions count from the first letter of the chain named.

T1: Human CD53-CHO (full-length human CD53 over-expressed on CHO-K1 cells) (human, UniProt P19397 1-219)
T1 construct: Tetraspanin cell-surface antigen
T1 sequence: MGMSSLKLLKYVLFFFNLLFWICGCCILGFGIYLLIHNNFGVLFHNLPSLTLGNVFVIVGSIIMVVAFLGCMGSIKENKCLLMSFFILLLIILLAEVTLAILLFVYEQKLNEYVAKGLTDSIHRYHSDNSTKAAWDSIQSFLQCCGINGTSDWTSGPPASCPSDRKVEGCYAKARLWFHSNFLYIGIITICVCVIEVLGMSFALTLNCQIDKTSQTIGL

B1: 4N19 (antibody, V domains shown)
VH: EVQLQQSVAELVRPGASVKLSCTASGFSIKNTYMHWVKQRPEQGLEWIGRIDPANGYTQHAPKFQGKATIITDTSSNTAYLQLSSLTSEDTAIYYCAGGGPYYAMDYWGQGTSVTVSS
VL: DIVMTQAAPSVPVTPGESVSISCRSSKSLLHSNGDTYLYWFLQRPGQSPQLLIYRMSNLASGVPDRFSGSGSGTAFTLRISRVEAEDVGVYYCMQHLEYPFTFGAGTKLELK
notes: Murine anti-human CD53 mAb purified from subcloned hybridoma; detected with anti-mouse IgG
B2: 5M13 (antibody, V domains shown)
VH: EVQLQQSVAELVRPGASVKLSCTASGFNIKNTYMHWVKQRPEQGLEWIGRLDPANGYTQSAPKFQGKATVTADTSSNTAYLHLSSLTSEDTAIYYCLYGNYYYAMAYWGQGTSVTVSS
VL: B1 VL with I2V, V11I, F101Y, A105G, L111I
notes: as for B1
B3: 6M01 (antibody, V domains shown)
VH: EVLLQQSVADLVRPGASVKLSCTASGFNIKNTYMHWVSQRPEQGLEWIGRIDPANGYTQCAPSFQGKATITADTSSNTAYLHLSSLSSEDPAIYYCAGGSYYSAMDYWGQGTSVTVSS
VL: B1 VL with V11L, A105S, L111I
notes: as for B1
B4: 6K14 (antibody, V domains shown)
VH: EVQLQQSGADLVRPGASVKLSCTASGFNIKDDYIHWVKQRPVQGLEWIGRIDPANGNTKYAPMFRGKATITADTSSNTAYLQLSSLTSEDTAVYYCARSGTGAMDYWGQGTSVTVSS
VL: B1 VL with P12F, L38F, G73T, Y99F, F101L
notes: as for B1
B5: 5F16 (antibody, V domains shown)
VH: B4 VH with D10E, K30E, I34V, V42E, T58I, M63K, R65Q, G66D, T78I, S88A
VL: B1 VL with L38F, Y99F, F101L, A105V
notes: as for B1
B6: 2M22 (antibody, V domains shown)
VH: EGQLQQSGSELVRPGASVKLSCTASGFNIKDDYVHWVKKRPEQGLEWIGRIDPANGYSHYVPKFHDKATITADTSSNTAYLQLNSLTSDDTAVYYCASGSGSYAMDYWGQGTSVTVSS
VL: B1 VL with D1E, L59V, A85T, Y99S, F101Y, A105G, L111I
notes: as for B1
B7: 10H16 (antibody, V domains shown)
VH: EVQLQQSGAELVRPGASVKLSCTVSGFNIKDDFMNWVRQRPEQGLEWIGRIDPENGNTKYAPKFQDKATITADTSSNTAHLHLSSLTSEDTAVYFCARWIPPYWGQGTLVTVSA
VL: B1 VL with P12H, V19A, V63A, H96L, F101Y, A105G, L111I
notes: as for B1
B8: 5K03 (antibody, V domains shown)
VH: EVQLQQSVAELVRPGASVKLSCTTSGFNIKNTYMHWVKQRPEQGLEWIGRIDPANGYTECAPKFQGKATITADTSSNTAYLQLSSLTSEDTAIYYCTRSGEDYAMDYWGQGTSVTVSS
VL: B1 VL with T14I, S26R, S32R, L51V, F101Y, A105G, L111I
notes: as for B1
B9: 10F09 (antibody, V domains shown)
VH: EVQLQQSVAELVRPGASVKLSCTASGFNIKNTYMHWVKQRPAQGLEWIGKIDPANGFTKHAPRFQGKATITSDTSSNTAYLQLSSLTSEDTAIYYCASGWDAAFAYWGQGTLVTVSA
VL: B1 VL with N58K, Y99H, F101L
notes: as for B1
B10: 5K16 (antibody, V domains shown)
VH: EVQLQQSVAELVRPGASVKLSCTASGFNIKNTYMYWVKQRPEQGLEWIGRIDPANGHTKCAPKFQGKATITADTSSNTAYLQLSSLTSEDSAIFYCARGEDYAMDYWGQGTSVTVSS
VL: B1 VL with A7S, L51V, H96L, A105S, L111I
notes: as for B1
B11: 2M05 (antibody, V domains shown)
VH: EVQLQQSVAELVRPGASVKLSCTTSGFNIKDTYMHWVKQRPEQGLEWIGRIDPANGHTKYAPKFQDKATIAADTSSNTAYLQLSSLTSEDTAIYYCACGWDAAFAFWGQGTLVTVSA
VL: B1 VL with S26G, V90I, M94L, Y99F, F101L
notes: as for B1
B12: 1L17 (antibody, V domains shown)
VH: B1 VH with S28N, G49A, T58S, H60Y, I71T, T72A, Y94F, G100S, P101T, Y103S
VL: B1 VL with A105G, L111I
notes: as for B1
B13: 4O24 (antibody, V domains shown)
VH: B9 VH with G26A, F57Y, H60Y, G66D, S72A, W100R, L112Q
VL: B1 VL with Y99H, F101L
notes: as for B1
B14: 4B19 (antibody, V domains shown)
VH: QVQLQQSGTELMKPGASVKLSCKATGYTFTGYWIEWVKQRPGHGLEWIGEILPGSYSTNYNEKFKGKATFTADSSSNTAYMQLSSLTTEDSAIYYCTRDSNYEWFDVWGTGTTVTVSS
VL: DVVMTQTPLSLSVTIGQPASISCKSSQSLLHRDGETYLNWLLQRPGQSPKLLIYLVSKLESGIPDRFSGSGSGTDFTLKISRVEVEDLGVYYCLQHTHFPYTFGSGTKLEIK
notes: as for B1
B15: 3A21 (antibody, V domains shown)
VH: EVQLQQSGAELVRPGASVKLSCTASGFNIKDDYMHWVKQRPEQGLEWIGLIDPENGYAEYASKFQGKATITADTSSNTANLQLNSLTSEDTAVYYCTTWGLLRNYVMDYWGQGTSVTVSS
VL: DIVMTQAAFSNPVTLGTSASISCSSSKSLLHSNGITYLYWYLQRPGQSPQLLIYRMSNLASGVPDRFSGSGSGTDFTLRVNRVEADDVGVYYCAQMLERPRTFGGGTKLEIK
notes: as for B1
B16: 10B08 (antibody, V domains shown)
VH: QLQQSGTELVRPGASVKLSCTSSGFNIKDDFMHWVKQRPEQGLEWIGWIDPENGATAYASKFQGKATITADTSSNTAYLQLSSLTSEDTAVYYCTTFGDYYGGRKDYWGQGTTLTVSS
VL: B15 VL with R79G, V80I, N81S, D86E
notes: as for B1
B17: 9E17 (antibody, V domains shown)
VH: QLQQSGAEFVRPGASVKLSCTASGFNIKDDYIHWVKQRPEQGLEWIGRIDPANGYTEYAPKFQGKATITSDTSSNTAYLQLSSLTSEDTAVFYCVWHWDYWGQGTTLTVSS
VL: B15 VL with S26Y, L30Q, S32N, Y41F, Q50H, V80I, N81S, D86E, R101F, G105T
notes: as for B1
B18: 10J06 (antibody, V domains shown)
VH: QVQLQQPGAELVKPGASVKLSCKASGYTFTSYWMHWVKQRPGQGLEWIGMIHPNSGSSNHNGKFRGKATLTVDKSSSTAYIQLSSLTSEDSAVYYCARDDYAETMDYWGQGTSVTVSS
VL: DVVMTQTPLSLSITIGQPASISCKSSQSLLYSDGKTYLNWFQQRPGQSPKRLMYQVSKLDPGIPDRFSGSGSETDFTLKISRVEAEDLGVYYCLQGTYYPWTFGGGTKLEIK
notes: as for B1
B19: 9J08 (antibody, V domains shown)
VH: QVQLQQPGAELVKPGASVKLSCKASGYTFTSCWMHWVKQRPGQGLEWIGMIHPNGYSSNYNGKFKNKATLTIDNSSGTAYMQLSGLTSEDSAVYYCARDDYAETMDYWGQGTSVTVSS
VL: B18 VL with I13V, F41L, K79R
notes: as for B1
B20: 6J17 (antibody, V domains shown)
VH: EVQLQQSGAELVRPGASVKLSCTASGFNIKDDYMHWVRQRPKQGLEWIGRVDPANGNTKYAPKFQDKATMTADTSSNTAYLRLSSLTSEDTAVYYCAGYFYYSHDGGFACWGQGTLVTVSA
VL: DIVMTQGSPSIPVTPGESVSISCRSSKSLLHRNGNIYLYWFLQRPGQSPQRLIYYMSNLASGVPDRFSGRGSGTDFTLRISRVEAEDVGVYYCMQGLEYPFTFGTGTKLEIK
notes: as for B1
B21: 5G03 (antibody, V domains shown)
VH: EVQLQQSGAELVRPGASVKLSCTASGFNIKDDFMHWVRQRPDQGLEYIGRFDPAIGNAKYAPKFQDKATLTADTSSNTAYLHLSSLTSEDTAVYYCAIFYAYWGQGTLVTVSA
VL: DVVMTQTPLSLPVSLGDQASISCRSSQSLVHSNRNTYLHWYLQKPGQSPKLLIYKVSNRFSGVPDRFSGSGSGTDFTLKISRVEAEDLGVYFCSQSTHVPFTFGSGTKLEIK
notes: as for B1
B22: 10N22 (antibody, V domains shown)
VH: EVQLQQSGPELVKPGASVKISCKASGYTFTGYFMNWVKQSHGKSLEWIGDLNPNNGGTNFNQRFKGKATLTVDKSSSTAYMELRSLTSEDSAVYYCARDGYDGGYAMDYWGQGTSVTVSS
VL: DVLMTQTPLSLPVSLGDQASISCRSSQNIVHSSGNTYLEWYLQKPGQSPKLLIFKVSNRFSGVPDRFSGSGSGTDFTLKISRVEAEDLGVYYCFQGSHVPYTFGGGTKLEIK
notes: as for B1

What follows are binders tested against T1, Human CD53-CHO (full-length human CD53 …) (assay: flow cytometry on CD53-CHO cells, anti-mouse IgG AF647 gMFI, 4-parameter fit).
Procedure: Binding of anti-human CD53 antibodies was determined by flow cytometry for their ability to bind human CD53-CHO cells compared to parental CHO-K1 cells. All assay steps were performed in FACS buffer (phosphate buffered saline pH 7.4 supplemented with 2% fetal bovine serum). Twenty thousand cells were seeded in 384-well plates and washed twice with ice cold buffer. Cells were incubated with purified antibodies titrated 3-fold from 200 nM to 0.09 nM at 4° C. for 1 hour with gentle agitation, then washed twice with FACS buffer and incubated with anti-mouse IgG Alexa Fluor® 647 and incubated at 4° C. for 40 minutes. Cells were washed twice and resuspended in FACS buffer. Analysis was preformed on the IntelliCyt® iQue Screener and gMFI values for Alexa Fluor® 647 were generated. EC50 values were determined in GraphPad Prism8. Concentration was transformed from nM to Log 10 nM and curves were fit with a nonlinear regression of log(agonist) vs. response−Variable slope (four parameters) or Y=Bottom+(Top−Bottom)/(1+10\hat{ }((LogEC50−X)*HillSlope)). EC50 values for all anti-human CD53 antibodies can be found in Table 6, and representative binding curves can be found in FIG. 7. Binding to CD53-CHO is represented by closed symbols and binding to parental CHO-K1 cells is represented by open symbols.

In order of falling EC50:
1. B18  82.5 nM
2. B14  36 nM
3. B9  25.4 nM
4. B20  ~23 nM
5. B2  11.1 nM
6. B21  9.1 nM
7. B13  8.1 nM
8. B7  ~8 nM
9. B22  ~8 nM
10. B10  5.6 nM
11. B11  4.6 nM
12. B16  3.1 nM
13. B4  ~3 nM
14. B5  ~3 nM
15. B19  2.7 nM
16. B1  2.5 nM
17. B15  2.1 nM
18. B17  2.1 nM
19. B3  ~2 nM
20. B8  ~2 nM
21. B12  ~2 nM
22. B6  ~0.3 nM
